# Laboratory results as given in US20210255174.
# Tests used:
# [1] = tested on: Control peptide #113: [4-Mu]TRIDEANQRATK[DABCYL]-Hex
# [2] = tested on: Control peptide #112: [5-Fam]TRIDEANQRATK[DABCYL]-Hex
substance,measurement,setting,value
Trypsin,KM,[1],13.3 µM
same,KM,[2],3.75 µM
